In this test the target is GST-tagged human FcRn (human; Schistosoma japonicum) (UniProt P55899). The test is described as follows: ELISA pH 6.0, h9C12 variant captured on AdV5 hexon, GST-hFcRn detected with anti-GST-HRP. For orientation: An ELISA detects its analyte on a solid surface through an enzyme-linked reagent.
Chain of GST-tagged human FcRn (human; Schistosoma japonicum) (P55899 24-297, chain 1 of 2): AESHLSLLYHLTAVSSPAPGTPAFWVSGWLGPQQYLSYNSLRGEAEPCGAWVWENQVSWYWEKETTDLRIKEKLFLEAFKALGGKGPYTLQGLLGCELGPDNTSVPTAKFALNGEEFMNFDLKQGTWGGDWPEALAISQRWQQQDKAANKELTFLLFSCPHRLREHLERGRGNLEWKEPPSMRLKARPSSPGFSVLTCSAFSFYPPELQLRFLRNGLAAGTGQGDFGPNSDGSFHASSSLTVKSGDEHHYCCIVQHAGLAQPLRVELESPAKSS
Chain of GST-tagged human FcRn (human; Schistosoma japonicum) (P61769 21-119, chain 2 of 2, further chain): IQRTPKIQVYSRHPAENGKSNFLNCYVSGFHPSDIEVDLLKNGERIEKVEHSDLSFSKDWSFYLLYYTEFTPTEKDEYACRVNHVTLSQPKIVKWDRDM

B1: h9C12 IgG3(b)-Q311R/N434W/M428E/R435H (antibody, part only; not given: variable domains, not shown: another chain or arm of the molecule)
constant: ASTKGPSVFPLAPCSRSTSGGTAALGCLVKDYFPEPVTVSWNSGALTSGVHTFPAVLQSSGLYSLSSVVTVPSSSLGTQTYTCNVNHKPSNTKVDKRVELKTPLGDTTHTCPRCPEPKSCDTPPPCPRCPEPKSCDTPPPCPRCPEPKSCDTPPPCPRCPAPELLGGPSVFLFPPKPKDTLMISRTPEVTCVVVDVSHEDPEVQFKWYVDGVEVHNAKTKPREEQYNSTFRVVSVLTVLHRDWLNGKEYKCKVSNKALPAPIEKTISKTKGQPREPQVYTLPPSREEMTKNQVSLTCLVKGFYPSDIAVEWESSGQPENNYNTTPPMLDSDGSFFLYSKLTVDKSRWQQGNIFSCSVEHEALHWHFTQKSLSLSPGK
In the case of B1, the Fold change from WT (ELISA) pH 6.0 stood at 3 fold.
